Measured values published in CN115232208A.

Target: 人可溶性BLyS (human soluble BLyS) (human) (UniProt Q9Y275)
Test: cell-based or functional assay

- IC50 of inhibition of the NF-κB signal downstream of human BLyS binding TACI (luciferase reporter gene assay): 0.0517 µg/mL
Substance: Benlysta (antibody)
